PMC11768756

Target: MK-1654 IgG (human)
Test: SPR; Biacore 8K+; MK-1654 IgG captured on a Protein A chip (about 110 RU); 1A6 or 1D4 Fab flowed at 0.4-128 nM, 60 s contact and 60 s dissociation, 30 µL/min; global 1:1 fit; KD = koff/kon; averages of three runs

MK-1654 IgG (human), sequence (heavy, as listed by the source, chain 1 of 2): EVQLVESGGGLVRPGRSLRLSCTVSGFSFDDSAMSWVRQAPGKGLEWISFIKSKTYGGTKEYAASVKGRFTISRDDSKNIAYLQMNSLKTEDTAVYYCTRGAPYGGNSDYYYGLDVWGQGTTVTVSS
MK-1654 IgG (human), sequence (light, as listed by the source, chain 2 of 2): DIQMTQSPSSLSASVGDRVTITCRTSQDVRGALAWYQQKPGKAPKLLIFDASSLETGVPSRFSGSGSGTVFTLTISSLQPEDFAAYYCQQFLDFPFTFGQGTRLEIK

B1: 1A6 anti-idiotypic Fab (Fab, V domains shown)
VH: QVQLVESGGGLVQPGGSLRLSCAASGFTFSSYAMNWVRQAPGKGLEWVSLISGSGSSTYYADSVKGRFTISRDNSKNTLYLQMNSLRAEDTAVYYCARFHTHGGYFDIWGQGTLVTVSS
VL: DIALTQPASVSGSPGQSITISCTGTSSDIGAYTYGSWYQQHPGKAPKLMIYGVNNRPSGVSNRFSGSKSGNTASLTISGLQAEDEADYYCASFDFSVSGVVFGGGTKLTVL
Kd: 0.94 nM
koff: 0.00628 s⁻¹
kon: 6.67e+06 M⁻¹ s⁻¹

B2: 1D4 anti-idiotypic Fab (Fab, V domains shown)
VH: QVQLVESGGGLVQPGGSLRLSCAASGFTFSSSGLHWVRQAPGKGLEWVSGIDSSSSTTYYADSVKGRFTISRDNSKNTLYLQMNSLRAEDTAVYYCARYYFDVWGQGTLVTVSS
VL: DIELTQPPSVSVAPGQTARISCSGDSIGTYAYWYQQKPGQAPVLVIYADDNRPSGIPERFSGSNSGNTATLTISGTQAEDEADYYCSSWATDNAPVFGGGTKLTVL
Kd: 3.75 nM
koff: 0.013 s⁻¹
kon: 3.5e+06 M⁻¹ s⁻¹
